Assay results from patent US20200270321A1.

Columns and labels:
[1] = biological target: human CD19 (as in Table 11) (human) (UniProt P15391); assay: BIAcore (SPR); format not stated
[2] = biological target: human CD19 (as in Table 11) (human) (UniProt P15391); assay: binding to human CD19 after incubation at pH 6.0; method not stated
[3] = biological target: human CD19 (as in Table 11) (human) (UniProt P15391); assay: binding to human CD19 after incubation at pH 7.4; method not stated

B1: wild-type humanized anti-human CD19 antibody 8B8 (antibody, V domains shown)
VH: QVQLVQSGAEVKKPGASVKVSCKASGYTFTDYIMHWVRQAPGQGLEWMGYINPYNDGSKYTEKFNGRVTMTSDTSISTAYMELSRLRSDDTAVYYCARGTYYYGSALFDYWGQGTTVTVSS
VL: DIVMTQTPLSLSVTPGQPASISCKSSQSLENSNGNTYLNWYLQKPGQSPQLLIYRVSKRFSGVPDRFSGSGSGTDFTLKISRVEAEDVGVYYCLQLTHVPYTFGQGTKLEIK
Kd [1]: 5 nM | human CD19 binding after pH 6.0 incubation [%] [2]: 90% | human CD19 binding after pH 7.4 incubation [%] [3]: 46%
